How the values were obtained:
purified protein [1] = substrate: CC(C)=CCOP(=O)(O)O; assay: purified protein; details: ATP co-substrate, 2 mM MgCl2, 50 mM buffer, DMAP made enzymatically with SfPK, apparent Km
purified protein [2] = substrate: CC(C)=CCO; assay: purified protein; details: ATP co-substrate, 2 mM MgCl2, 50 mM buffer, optimal conditions (optimum pH 7.5, 30 °C), apparent Km, 30.0 °C
[3] = substrate: CC(C)=CCO; assay: ADP formation, ADP colorimetric/fluorometric assay kit, Michaelis-Menten fit; type: biochemical, Escherichia coli; details: ATP co-substrate, 2 mM MgCl2, 50 mM buffer, optimal conditions (optimum pH 5.5, 50 °C), apparent Km
[4] = substrate: CC(C)=CCO; assay: as above; type: biochemical, Shigella flexneri; details: ATP co-substrate, 2 mM MgCl2, 50 mM buffer, optimal conditions (optimum pH 9.0, 55 °C), apparent Km

B1: MtIPK (Methanolobus tindarius isopentenyl phosphate kinase) (Methanolobus tindarius DSM 2278) (protein)
chain: MDNNNITILKIGGSVITDKSADDGTARLSEIERIAAEISGFEGKLIIVHGAGSFGHPQVKRFGLTGKFDHEGSIITHMSVRKLNTMVVETLNSAGINALPVHPMACAISSNSRIKSMFREQIEEMLANGFVPVLHGDMVMDTDLGTSVLSGDQIVPYLAIQMKASRIGIGSAEEGVLDDKGGVIPLINNENFDEIKAYLSGSANTDVTGGMLGKVLELLELSEQSNSTSYIFNAGNTGNISDFLSGKNIGTAIGAGTI
**Q.** For B1, which Km (purified protein [1]; optimal conditions (optimum pH 7.5, 35 °C), 35.0 °C) is on record?
**A.** Its Km is 65 µM.

B2: ScPK (Saccharomyces cerevisiae promiscuous kinase) (Saccharomyces cerevisiae S288C) (protein)
chain: MVQESRPGSVRSYSVGYQARSRSSSQRRHSLTRQRSSQRLIRTISIESDVSNITDDDDLRAVNEGVAGVQLDVSETANKGPRRASATDVTDSLGSTSSEYIEIPFVKETLDASLPSDYLKQDILNLIQSLKISKWYNNKKIQPVAQDMNLVKISGAMTNAIFKVEYPKLPSLLLRIYGPNIDNIIDREYELQILARLSLKNIGPSLYGCFVNGRFEQFLENSKTLTKDDIRNWKNSQRIARRMKELHVGVPLLSSERKNGSACWQKINQWLRTIEKVDQWVGDPKNIENSLLCENWSKFMDIVDRYHKWLISQEQGIEQVNKNLIFCHNDAQYGNLLFTAPVMNTPSLYTAPSSTSLTSQSSSLFPSSSNVIVDDIINPPKQEQSQDSKLVVIDFEYAGANPAAYDLANHLSEWMYDYNNAKAPHQCHADRYPDKEQVLNFLYSYVSHLRGGAKEPIDEEVQRLYKSIIQWRPTVQLFWSLWAILQSGKLEKKEASTAITREEIGPNGKKYIIKTEPESPEEDFVENDDEPEAGVSIDTFDYMAYGRDKIAVFWGDLIGLGIITEEECKNFSSFKFLDTSYL
**Q.** With B2 as the protein, how does the Km (purified protein [2]) read?
**A.** The Km was 1250 µM.

B3: EcPK (Escherichia coli promiscuous kinase) (Escherichia coli K-12) (protein)
chain: MQVDLLGSAQSAHALHLFHQHSPLVHCMTNDVVQTFTANTLLALGASPAMVIETEEASQFAAIASALLINVGTLTQPRAQAMRAAVEQAKSSQTPWTLDPVAVGALDYRRHFCHELLSFKPAAIRGNASEIMALAGIANGGRGVDTTDAAANAIPAAQTLARETGAIVVVTGEMDYVTDGHRIIGIHGGDPLMTKVVGTGCALSAVVAACCALPGDTLENVASACHWMKQAGERAVARSEGPGSFVPHFLDALWQLTQEVQA
**Q.** With B3 as the protein, how does the Km [3] read?
**A.** The Km was 930 µM.

B4: MthIPK (Methanothermobacter thermautotrophicus isopentenyl phosphate kinase) (Methanothermobacter thermautotrophicus str. Delta H) (protein)
chain: MIILKLGGSVITRKDSEEPAIDRDNLERIASEIGNASPSSLMIVHGAGSFGHPFAGEYRIGSEIENEEDLRRRRFGFALTQNWVKKLNSHVCDALLAEGIPAVSMQPSAFIRAHAGRISHADISLIRSYLEEGMVPVVYGDVVLDSDRRLKFSVISGDQLINHFSLRLMPERVILGTDVDGVYTRNPKKHPDARLLDVIGSLDDLESLDGTLNTDVTGGMVGKIRELLLLAEKGVESEIINAAVPGNIERALLGEEVRGTRITGKH
**Q.** How did the Km (purified protein [1]; optimal conditions (optimum pH 7.5, 30 °C), 30.0 °C) turn out when B4 was run?
**A.** The Km was 116 µM.

B5: SfPK (Shigella flexneri promiscuous kinase) (Shigella flexneri) (protein)
chain: SIPPGNDVTTKPDLYYLTNDNAIDSLALLPPPPQIGSIAFLNDQAMYEKGRLLRNTERGKLAAEDANLSSGGVANVFSAAFGSPITAKDSPELHKLLTNMIEDAGDLATRSAKEYYMRIRPFAFYGVSTCNTKEQDTLSRNGSYPSGHTSIGWATALVLSEINPARQDTILKRGYELGDSRVICGYHWQSDVDAARIVGSAIVATLHSNPVFQAQLQKAKDEFANNQKK
**Q.** For B5, which Km [4] is on record?
**A.** The Km was 16 µM.

Source: PMC9654404, “Functional Characterization and Screening of Promiscuous Kinases and Isopentenyl Phosphate Kinases for the Synthesis of DMAPP via a One-Pot Enzymatic Cascade” (International Journal of Molecular Sciences, 2022)
